Earlier results, collected in paper PMC3012698, “Characterization of a Novel Interaction between Bcl-2 Members Diva and Harakiri” (PLoS ONE, 2010).

B1: Bad: BH3-only protein Bad (protein, UniProt Q92934 1-168, looked up)
Bcl2-associated agonist of …: MFQIPEFEPSEQEDSSSAERGLGPSPAGDGPSGSGKHHRQAPGLLWDASHQQEQPTSSSHHGGAGAVEIRSRHSSYPAGTEDDEGMGEEPSPFRGRSRSAPPNLWAAQRYGRELRRMSDEFVDSFKKGLPRPKSAGTATQMRQSSSWTRVFQSWWDRNLGRGSSAPSQ
B2: Bik: proapoptotic Bcl-2 member Bik (protein, UniProt Q13323 1-160, looked up)
Bcl-2-interacting killer: MSEVRPLSRDILMETLLYEQLLEPPTMEVLGMTDSEEDLDPMEDFDSLECMEGSDALALRLACIGDEMDVSLRAPRLAQLSEVAMHSLGLAFIYDQTEDIRDVLRSFMDGFTTLKENIMRFWRSPNPGSWVSCEQVLLALLLLLALLLPLLSGGLHLLLK
B3: Bak: proapoptotic Bcl-2 member Bak (protein, UniProt Q16611 2-211, looked up)
Bcl-2 homologous …: ASGQGPGPPRQECGEPALPSASEEQVAQDTEEVFRSYVFYRHQQEQEAEGVAAPADPEMVTLPLQPSSTMGQVGRQLAIIGDDINRRYDSEFQTMLQHLQPTAENAYEYFTKIATSLFESGINWGRVVALLGFGYRLALHVYQHGLTGFLGQVTRFVVDFMLHHCIARWIAQRGGWVAALNLGNGPILNVLVVLGVVLLGQFVVRRFFKS

Columns and labels:
[1] = ref [10]
Method: Circular dichroism (CD) experiments were performed on Harakiri's cytosolic domain to obtain information on its conformational behavior. […] Thus, the cytosolic domain of Harakiri is largely unstructured. Consequently, the NMR spectra of Hrk_ΔTM show small amide ^1H chemical shift dispersion (from ∼7.9 to 8.7 ppm) and severe signal overlap ( Fig. 6 ). These spectral features together with the absen ...

Diva = settings: ref [21]
Source text: Harakiri localizes in membranes and exerts proapoptotic activity by interacting with survival Bcl-XL and Bcl-2 [18]. Harakiri has not been characterized at the structural level except for its C-terminal sequence (∼30 amino acids), which is known from low-resolution techniques to adopt α-helical conformation in model membranes. Diva has also been found predominantly in membranes [20]–[21]. However, little functional data on Diva is available. Specifically, previous independent reports indicate that Diva can have both pro- or antiapoptotic function [20]–[21]. Diva has also been ...

Row | Molecule | structural state of unbound BH3-only protein [1] | binding to Diva (co-immunoprecipitation) (Diva)
1 | B1 | unstructured | –
2 | B2 | – | bind
3 | B3 | – | bind
